Measured values from patent publication US20240199755A1, “ANTAGONISTS AND AGONISTS OF THE TRANSFERRIN RECEPTOR-2 FOR USE IN THE TREATMENT OF DISEASES OF THE BONE” (Kymab Limited, priority 2018, published 2024).
“Also recorded” adds a separate entry of the source.

Assay: Iron, blood and bone parameters of wild type mice treated systemically with Tfr2-ECD
Assay type: in vivo
Protocol: For systemic Tfr2-ECD treatment, WT mice were treated every other day with Tfr2-ECD intraperitoneally for two weeks. Mice received 250 μg Tfr2-ECD (10 mg/kg BW) per injection for the first 10 days after BMP-2/matrigel injection into the muscle and 125 μg per injection (5 mg/kg BW) for the remaining time. This experiment was performed once with 8-10 mice per group. Drop-weight HO: This experiment was performed according to Liu et al. with minor modifications^65. Female 10-12-week-old WT mice were anesthetized and placed on a ridge of a plastic container over which the right leg was bent so the femur was lying horizontally. Mice received an injection of 1 μg BMP-2 mixed in 50 μl matrigel. Afterwards, a stainless-steel ball of 16 g (16 mm diameter) was dropped from a distance of 80 cm height onto the quadriceps muscle. Mice either received a single dose of 1 μg Tfr2-ECD, which was co-injected with the BMP-2/matrigel mixture, or palovarotene (Hycultec), which was administered daily by oral gavage. Palovarotene was dissolved in DMSO and diluted 1:4 with corn oil. Mice received palovarotene at a dose of 100 μg/mouse for the first five days and 50 μg/mouse for the remainder of the experiment (days 621). One group of mice received ibuprofen via the drinking water at a dose of […] which was changed every other day^66. Mice received methamizole (200 mg/kg) to reduce pain for the entire duration of the experiment. This experiment was performed twice with 6 mice per group.
Bone microarchitecture was analyzed using the vivaCT40 (Scanco Medical, Switzerland). The femur and the fourth lumbar vertebra were imaged at a resolution of 10.5 μm with X-ray energy of 70 kVp, […], and an integration time of 200 ms. The trabecular bone in the femur was assessed in the metaphysis 20 slices below the growth plate using 150 slices. In the vertebral bone, 150 slices were measured between both growth plates. The cortical bone was determined in the femoral midshaft (150 slices). Pre-defined scripts from Scanco were used for the evaluation.
The iron concentration in the liver was determined using 20 mg of dried liver tissue as previously published^8. The iron concentration in the bone was determined using atomic absorption spectroscopy (PerkinElmer Analyst 800) of dried bone tissue (bone marrow-flushed femur and tibia) as previously published^69.
The bone turnover markers C-terminal telopeptide (CTX) and pro-collagen type I N-terminal peptide (P1NP) were measured in the serum using ELISAs (IDS, Germany). Serum dickkopf-1 and BMP-2 were measured using ELISAs from R&D Systems (Germany). Mouse sclerostin was measured with an ELISA from Alpco (USA). Serum ferritin and iron were measured using routine methods for clinical analyses on a Roche Modular PPE analyzer. The transferrin saturation was determined using a total iron binding capacity kit from Randox.

[1] = wild type mice, systemic Tfr2-ECD, n = 8, means ± SD

B1: Tfr2-ECD: Recombinant full-length extracellular domain (aa 103-798) of murine Tfr2, His-tagged, expressed in Sf9 insect cells (protein, listed as Mus musculus)
chain: RGSCQACGDSVLVVDEDVNPEDSGRTTLYWSDLQAMFLRFLGEGRMEDTIRLTSLRERVAGSARMATLVQDILDKLSRQKLDHVWTDTHYVGLQFPDPAHANTLHWVDADGSVQEQLPLEDPEVYCPYSATGNATGKLVYAHYGRSEDLQDLKAKGVELAGSLLLVRVGITSFAQKVAVAQDFGAQGVLIYPDPSDFSQDPHKPGLSSHQAVYGHVHLGTGDPYTPGFPSFNQTQFPPVESSGLPSIPAQPISADIADQLLRKLTGPVAPQEWKGHLSGSPYRLGPGPDLRLVVNNHRVSTPISNIFACIEGFAEPDHYVVIGAQRDAWGPGAAKSAVGTAILLELVRTFSSMVSNGFRPRRSLLFISWDGGDFGSVGATEWLEGYLSVLHLKAVVYVSLDNSVLGDGKFHAKTSPLLVSLIENILKQVDSPNHSGQTLYEQVALTHPSWDAEVIQPLPMDSSAYSFTAFAGVPAVEFSFMEDDRVYPFLHTKEDTYENLHKMLRGRLPAVVQAVAQLAGQLLIRLSHDHLLPLDFGRYGDVVLRHIGNLNEFSGDLKERGLTLQWVYSARGDYIRAAEKLRKEIYSSERNDERLMRMYNVRIMRVEFYFLSQYVSPADSPFRHIFLGQGDHTLGALVDHLRMLRADGSGAASSRLTAGLGFQESRFRRQLALLTWTLQGAANALSGDVWNIDNNF
modifications: His tag
notes: Recombinant full-length extracellular domain (aa 103-798) of murine Tfr2, His-tagged, expressed in Sf9 insect cells
Adverse effects on blood counts, iron parameters, bone homeostasis or gross morphology of internal organs (systemic Tfr2-ECD treatment, 2 week treatment period): No adverse effects; also recorded: did not show adverse effects
Differential counts, Lymphocytes [1]: 90.1 ± 4.35%
Differential counts, Monocytes [1]: 2.17 ± 2.55%
Differential counts, Neutrophils [1]: 7.33 ± 2.82%
HCT [1]: 0.51 ± 0.02
Heart iron [1]: 207.8 ± 54.1 μg/g dry tissue
Hemoglobin [1]: 9.77 ± 0.41 mmol/L
Kidney iron [1]: 112.6 ± 15.0 μg/g dry tissue
Liver iron [1]: 578.3 ± 273^ μg/g dry tissue
Plasma iron [1]: 30.1 ± 3.3 µmol/L
Platelets [1]: 385 ± 69.5 10^9/L
RBC [1]: 10.1 ± 0.40 10^12/L
Reticulocytes [1]: 197 ± 24.2 10^9/L
Spleen iron [1]: 620.2 ± 113^ μg/g dry tissue
WBC [1]: 11.0 ± 3.09 10^9/L
μCT BV/TV Femur [1]: 10.7 ± 3.09%
μCT BV/TV Vertebrae [1]: 24.1 ± 3.36%
